Assays:
[1] = biological target: human Claudin18.2 expressed on cells (human) (UniProt P56856); assay: flow cytometry on SNU1-hClaudin18.2 cells, APC anti-human IgG Fc secondary antibody
[2] = biological target: human Claudin18.2 expressed on cells (human) (UniProt P56856); assay: flow cytometry on SNU1-hClaudin18.2 cells
[3] = biological target: T1, Human Claudin18.2 His tag protein (human, UniProt P56856-2 1-261, limits assumed); assay: BLI (Octet), antibody on Protein A biosensor
T1 construct: also called Claudin18.2 protein; not shown: His tag
T1 sequence (looked up): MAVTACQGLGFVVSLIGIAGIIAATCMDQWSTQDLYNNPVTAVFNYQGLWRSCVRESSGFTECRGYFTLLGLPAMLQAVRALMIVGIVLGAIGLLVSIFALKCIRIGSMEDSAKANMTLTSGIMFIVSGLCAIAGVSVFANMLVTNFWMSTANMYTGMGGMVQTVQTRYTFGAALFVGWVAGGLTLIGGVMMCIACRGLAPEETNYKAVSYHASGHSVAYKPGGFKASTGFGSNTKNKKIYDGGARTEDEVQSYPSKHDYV
Method: The affinity of Claudin18.2 nanobodies was determined. The affinity of the antibodies was measured using the Fortebio Octet® detection instrument based on the biolayer interferometry (BLI) technique.
After the 5 antibodies were immobilized on the Protein A biosensor, the antibodies could bind to the Human Claudin18.2 His tag protein. The measured affinity was calculated using Data Analysis 11 software of the Octet RED96e (ForteBio). The affinities (KD values) of antibody NCLD04 and antibody NCLD31 for the Claudin18.2 protein are both favorable.

Claudin18.2 protein = biological target: T2, Claudin18.2 protein (UniProt P56856-2 1-261, limits assumed); assay: flow cytometry of STAR-T cells stained with Claudin18.2 protein
T2 sequence (looked up): T1 sequence (looked up)
Source text: The above-mentioned vectors were used to package lentiviruses and infect T cells. After one week of culture, the expression levels of STAR and Claudin18.2 on the cells were detected by flow cytometry.
Specifically, the expression of the Claudin18.2 antibody in the STAR structure on the cell membrane was detected by staining with the Claudin18.2 Protein antibody, and the positive rate of STAR vector infection was detected by mTCRβ. […] The protein binding of NCR8020-NCLD04α-STAR and NCLD04 STAR is relatively good, exceeding 55%. Both MND-NCLD04β-NCR802a STAR-mL15 and MND-NCR8020-NCLD04α STAR-mL15 can be successfully expressed on the membrane.

MSLN = biological target: T3, MSLN (UniProt Q13421 296-580, limits assumed); assay: BLI affinity detection
T3 construct: also called mesothelin
T3 sequence (Q13421 other isoform, or with tags, fused parts or gaps limits assumed): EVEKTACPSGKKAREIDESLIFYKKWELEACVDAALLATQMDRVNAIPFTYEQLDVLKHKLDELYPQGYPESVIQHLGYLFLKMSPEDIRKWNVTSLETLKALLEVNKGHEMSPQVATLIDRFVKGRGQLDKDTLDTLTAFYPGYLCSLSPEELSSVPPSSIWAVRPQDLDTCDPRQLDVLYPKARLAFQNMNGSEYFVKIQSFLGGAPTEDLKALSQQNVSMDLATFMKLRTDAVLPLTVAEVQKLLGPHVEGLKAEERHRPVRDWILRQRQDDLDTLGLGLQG

B1: NCLD14 (VHH-IgG1 Fc) (Fc fusion)
chain: DVQLQESGGGLVQPGGSLRLSCATSGFTFSTYNMGWFRQAPGKEREFVGSIKWSASTTYYADSVKGRFTISRDNAKNTVYLQMNSLKPEDTAIYYCAGSPHIALGTRTEMYPYWGQGTQVTVSS
notes: Tested as VHH-IgG1 Fc; also called antibody NCLD14; not shown: IgG1 Fc fused to the VHH
- EC50 (read off the curve) [1]: 3 nM
- EC50 [2]: 21 nM
- Kd [3]: 72.6 nM
- koff [3]: 0.00456 s⁻¹
- kon [3]: 62900 M⁻¹ s⁻¹

B2: NCLD04-STAR (NCLD04β-STAR-a(G4S)3OX40(gh)) (other)
chain 1: DVQLQESGGGLVQPGGSLRLSCTASGLTFNDYAVSWLRQAPGKEREFVATIRGSGGVTNYGASAEGRFIISRENAENTVYLQMNSLKSEDTAVYYCNARPLFGWSEEYWGQGTQVTVSSEDLRNVTPPKVSLFEPSKAEIANKQKATLVCLARGFFPDHVELSWWVNGKEVHSGVCTDPQAYKESNYSYCLSSRLRVSATFWHNPRNHFRCQVQFHGLSEEDKWPEGSPKPVTQNISAEAWGRADCGITSASYQQGVLSATILYEILLGKATLYAVLVSTLVVMAMVKRKNS
chain 2: DIQNPEPAVYQLKDPRSQDSTLCLFTDFDSQINVPKTMESGTFITDKCVLDMKAMDSKSNGAIAWSNQTSFTCQDIFKETNATYPSSDVPCDATLTEKSFETDMNLNFQNLLVIVLRILLLKVAGFNLLMTLRLWGGGGSGGGGSGGGGSRRDQRLPPDAHKPPGGGSFRTPIQEEQADAHSTLAKI
notes: Synthetic T-cell receptor and antigen receptor on T cells; NCLD04 VHH on the beta constant region; also called NCLD04-STAR-T
- protein binding (percent of cells) (Claudin18.2 protein): > 55%

B3: NM5 (VHH)
VHH: DVQLQESGGGLVQAGGSLRLSCVGAGVSFSPYGIGWWRQAQGNQREWVASIYRSGSTNYEDFAKDRFTISRDNTKNTAYLQMNSLKPEDTAVYYCQILGTSYRGQGTQVTVSS
notes: also called nanobody NM5; NM5 antibody
- Kd (MSLN): 11.4 nM
